Laboratory results: paper PMC5748111

Target: CaMKII (human CaMKIIδ, form used for the solution kinetics not stated) (human) (UniProt Q13557)
Sequence of UniProt Q13557 (Q13557 1-478, stated change not applied): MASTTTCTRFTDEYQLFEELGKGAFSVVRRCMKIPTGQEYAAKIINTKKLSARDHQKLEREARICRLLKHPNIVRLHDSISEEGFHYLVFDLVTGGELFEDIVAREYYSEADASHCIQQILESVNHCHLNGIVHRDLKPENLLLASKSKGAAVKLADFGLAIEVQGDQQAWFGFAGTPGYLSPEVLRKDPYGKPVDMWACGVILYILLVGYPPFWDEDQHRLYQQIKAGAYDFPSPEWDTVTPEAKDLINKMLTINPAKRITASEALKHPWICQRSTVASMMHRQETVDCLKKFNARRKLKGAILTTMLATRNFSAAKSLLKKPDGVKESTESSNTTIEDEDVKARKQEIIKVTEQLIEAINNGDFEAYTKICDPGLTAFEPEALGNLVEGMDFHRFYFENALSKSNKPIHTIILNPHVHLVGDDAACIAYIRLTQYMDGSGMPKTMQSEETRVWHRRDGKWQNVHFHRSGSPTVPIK

Km of peptide phosphorylation, standard solution kinetics [µM]	Binder
> 1000	PGVRLLQDSVDFSLA [VimentinS83 peptide]
43.5	PLARTLSVAGLPGKK [Syntide peptide]
4.6	RNKLRRQHSYDTFVD [GluN2B_(S1303) peptide]
> 1000	GFCLIPQQSINEAIR [GluA1_(S849) peptide]
